One block for each substance: values may come before it.
Legend:
tau 186-253 (human) = test: peptide ELISA
ptau 189-209 (human) = test: peptide ELISA
tau 194-212 (human) = test: peptide ELISA
ptau 192-215 (human) = test: peptide ELISA
ptau 188-205 (human) = test: peptide ELISA
ptau 189-206 (human) = test: peptide ELISA
ptau 192-209 (human) = test: peptide ELISA
tau 190-209 (human) = test: peptide ELISA
ptau 188-206 (human) = test: peptide ELISA
ptau 192-217 (human) = test: peptide ELISA
[1] = target: ptau 194-212 (pS202, pT205) (human); test: peptide ELISA, 1 ug/mL IgG
[2] = target: ptau 187-212 (A207) (human); test: alanine-scan peptide ELISA, 1 ug/mL IgG
[3] = target: ptau 187-212 (A201) (human); test: alanine-scan peptide ELISA, 1 ug/mL IgG
[4] = target: ptau 187-212 (A205) (human); test: alanine-scan peptide ELISA, 1 ug/mL IgG
[5] = target: ptau 187-212 (A203) (human); test: alanine-scan peptide ELISA, 1 ug/mL IgG
[6] = target: ptau 187-212 (A192) (human); test: alanine-scan peptide ELISA, 1 ug/mL IgG
[7] = target: ptau 187-212 (A210) (human); test: alanine-scan peptide ELISA, 1 ug/mL IgG
[8] = target: ptau 187-212 (A197) (human); test: alanine-scan peptide ELISA, 1 ug/mL IgG
[9] = target: ptau 187-212 (A188) (human); test: alanine-scan peptide ELISA, 1 ug/mL IgG
[10] = target: ptau 187-212 (A206) (human); test: alanine-scan peptide ELISA, 1 ug/mL IgG
[11] = target: ptau 187-212 (A202) (human); test: alanine-scan peptide ELISA, 1 ug/mL IgG
[12] = target: ptau 187-212 (A209) (human); test: alanine-scan peptide ELISA, 1 ug/mL IgG
[13] = target: ptau 187-212 (A191) (human); test: alanine-scan peptide ELISA, 1 ug/mL IgG
[14] = target: ptau 187-212 (A200) (human); test: alanine-scan peptide ELISA, 1 ug/mL IgG
[15] = target: ptau 187-212 (A193) (human); test: alanine-scan peptide ELISA, 1 ug/mL IgG
[16] = target: ptau 187-212 (A187) (human); test: alanine-scan peptide ELISA, 1 ug/mL IgG
[17] = target: ptau 187-212 (A211) (human); test: alanine-scan peptide ELISA, 1 ug/mL IgG
[18] = target: ptau 187-212 (A199) (human); test: alanine-scan peptide ELISA, 1 ug/mL IgG
[19] = target: ptau 187-212 (A196) (human); test: alanine-scan peptide ELISA, 1 ug/mL IgG
[20] = target: ptau 187-212 (A190) (human); test: alanine-scan peptide ELISA, 1 ug/mL IgG
[21] = target: ptau 187-212 (A195) (human); test: alanine-scan peptide ELISA, 1 ug/mL IgG
[22] = target: ptau 187-212 (A204) (human); test: alanine-scan peptide ELISA, 1 ug/mL IgG
[23] = target: ptau 187-212 (A198) (human); test: alanine-scan peptide ELISA, 1 ug/mL IgG
[24] = target: ptau 187-212 (A212) (human); test: alanine-scan peptide ELISA, 1 ug/mL IgG
[25] = target: ptau 187-212 (A208) (human); test: alanine-scan peptide ELISA, 1 ug/mL IgG
[26] = target: ptau 187-212 (A189) (human); test: alanine-scan peptide ELISA, 1 ug/mL IgG
[27] = target: ptau 187-212 (A194) (human); test: alanine-scan peptide ELISA, 1 ug/mL IgG
[28] = target: ptau 187-212 (pS202, pT205; as printed in Table 22) (human); test: alanine-scan peptide ELISA, 1 ug/mL IgG
[29] = target: ptau 187-212 (pY197, pT205; as printed in Table 11) (human); test: peptide ELISA, 2 ug/mL IgG
[30] = target: ptau 194-212 (pS202, pT205) (human); test: peptide ELISA, 2 ug/mL IgG
ptau 189-212 (human) = test: peptide ELISA, 2 ug/mL IgG
ptau 188-212 (human) = test: peptide ELISA, 2 ug/mL IgG
ptau 192-212 (human) = test: peptide ELISA, 2 ug/mL IgG
ptau 188-209 (human) = test: peptide ELISA, 2 ug/mL IgG
[31] = target: ptau 194-212 (pS202, pT205) (human); test: peptide ELISA, biotinylated peptide on streptavidin plate, IgG titrated (Example 6)

Chain of CBTAU-7.1 (antibody) (VH): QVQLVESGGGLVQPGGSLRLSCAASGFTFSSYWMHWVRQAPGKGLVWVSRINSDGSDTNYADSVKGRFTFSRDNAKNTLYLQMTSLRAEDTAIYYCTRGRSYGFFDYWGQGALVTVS
Chain of CBTAU-7.1 (antibody) (VL): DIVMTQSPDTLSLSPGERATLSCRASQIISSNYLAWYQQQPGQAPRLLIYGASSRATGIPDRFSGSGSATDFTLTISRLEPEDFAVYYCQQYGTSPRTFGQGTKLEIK
Chain of tau 194-212 (human) (peptide, as listed by the source): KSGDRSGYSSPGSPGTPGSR
Chain of tau 186-253 (human) (peptide, as listed by the source limits assumed): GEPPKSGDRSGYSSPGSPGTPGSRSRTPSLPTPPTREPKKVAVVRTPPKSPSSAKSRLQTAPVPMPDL

OD450 (tau 186-253 (human)): < 0.3 od
OD450 (ptau 189-209 (human)): < 0.3 od
OD450 (tau 194-212 (human)): < 0.3 od
OD450 (ptau 192-215 (human)): < 0.3 od
OD450 (ptau 188-205 (human)): < 0.3 od
OD450 (ptau 189-206 (human)): < 0.3 od
OD450 (ptau 192-209 (human)): < 0.3 od
OD450 (tau 190-209 (human)): < 0.3 od
OD450 (ptau 188-206 (human)): < 0.3 od
OD450 (ptau 192-217 (human)): < 0.3 od
OD450 [1]: 1 to 1.5 od
OD450 [2]: > 1.5 od
OD450 [3]: > 1.5 od
OD450 [4]: 0.5 to 1 od
OD450 [5]: > 1.5 od
OD450 [6]: > 1.5 od
OD450 [7]: > 1.5 od
OD450 [8]: > 1.5 od
OD450 [9]: 1 to 1.5 od
OD450 [10]: 0.5 to 1 od
OD450 [11]: 1 to 1.5 od
OD450 [12]: > 1.5 od
OD450 [13]: > 1.5 od
OD450 [14]: 1 to 1.5 od
OD450 [15]: > 1.5 od
OD450 [16]: 1 to 1.5 od
OD450 [17]: > 1.5 od
OD450 [18]: 1 to 1.5 od
OD450 [19]: > 1.5 od
OD450 [20]: > 1.5 od
OD450 [21]: > 1.5 od
OD450 [22]: 0.5 to 1 od
OD450 [23]: > 1.5 od
OD450 [24]: > 1.5 od
OD450 [25]: > 1.5 od
OD450 [26]: 1 to 1.5 od
OD450 [27]: > 1.5 od
OD450 [28]: > 1.5 od
OD450 [29]: 0.5 to 1 od
OD450 [30]: 1 to 1.5 od
OD450 (ptau 189-212 (human)): 1 to 1.5 od
OD450 (ptau 188-212 (human)): 0.5 to 1 od
OD450 (ptau 192-212 (human)): 1 to 1.5 od
OD450 (ptau 188-209 (human)): > 1.5 od
Substance: CBTAU-7.1 (antibody)

OD450 (tau 194-212 (human)): < 0.3 od
OD450 [1]: > 1.5 od
EC50 (read off the curve) [31]: 0.1 µg/mL
Substance: AT8 monoclonal antibody (Thermo, MN1020)
